The data set can be described thus: protein stability index of a GFP-peptide fusion (GPS, HEK-293T) (PSI 1-6); higher = more stable.
Where [1] appears, read: treatment: DMSO, c terminus: a fixed tail appended.
The mark [2] stands for this setting: treatment: MLN4924 1 uM, 8 h, c terminus: a fixed tail appended.

± gives the standard deviation.
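Also: 24-mer peptide tiles fused after GFP, lentivirally expressed, FACS-sorted into six equal bins by GFP/DsRed ratio, decoded by Illumina sequencing, PSI is the read-weighted mean bin number.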

Turning to YTAQQDQELDIKKNERLWLLDDSK [NCK2], the protein stability index was 4.37 ± 0.27 under setting [1] and 4.65 ± 0.15 under setting [2].

For RSDADLVVFLSPLTTFQDQLNRRG [OAS1], the protein stability index was 2.27 ± 0.22 under setting [1] and 2.33 ± 0.31 under setting [2].

In the case of LGVDTAETSYLEMAAGSEPESVEA [KMT2E], the protein stability index runs as follows: under setting [1], 5.27 ± 0.32; under setting [2], 5.5 ± 0.42.

MRHIRFLKNEVERLKKQLRAAQLQ [CCDC6]: the protein stability index is 2.31 ± 0.25 under setting [1] and 2.23 ± 0.25 under setting [2].

QSGRHLQTHSNTIVVSLQSKLASM [STX5]: the protein stability index was determined as 2.79 ± 0.36 under setting [1] and 2.97 ± 0.28 under setting [2].

Consider YPEDSSWAAKAPGASSREEPPEEP [SPDEF], for which the protein stability index runs as follows: under setting [1], 4.21 ± 0.43; under setting [2], 4.64 ± 0.51.

Regarding MDGRWQCSCWAWFLLVLAVVAGDT [ADAMTSL2], the protein stability index is 2.62 ± 1 under setting [1] and 2.45 ± 0.52 under setting [2].

Turning to VEGAMHIQECVPEDLELKKKIFAQ [CRYL1], the protein stability index was 4.74 ± 0.45 under setting [1] and 4.27 ± 0.2 under setting [2].

In the case of PGEEKFENLEGVPSVCSENIHPQV [ZNF263], the protein stability index under setting [1] is 4.96 ± 0.23 and the protein stability index under setting [2] amounted to 4.96 ± 0.38.

For HECILPFVQVKGNFARLQTCISEL [M1AP], the protein stability index came out at 2.21 ± 0.11 under setting [1] and 2.21 ± 0.13 under setting [2].

In the case of PQVPQPPSPAAVPRPPSNPPARGT [TRAF3IP2], the protein stability index was found to be 5.2 ± 0.12 under setting [1] and 5.17 ± 0.2 under setting [2].

As for IRRPVNVPIDIFSEEIRFYQLGEE [KCNA3], the protein stability index by setting is: under setting [1], 2.59 ± 0.56; under setting [2], 2.75 ± 0.37.

Take KEYEKALKYVRGLLQTEPQNNQAK [FIS1]: the protein stability index by setting is: under setting [1], 2.86 ± 0.14; under setting [2], 3 ± 0.45.

For the sequence PGKDYDADRQCQLTFGPDSRHCPQ [ADAMTS4], the protein stability index came to 4.68 ± 0.26 under setting [1] and 4.67 ± 0.24 under setting [2].

Turning to YVYFFCTVPEILVHNIVIFMRTSV [TMEM106C], the protein stability index was found to be 3.13 ± 0.43 under setting [1] and 2.92 ± 0.37 under setting [2].

As to ADISEAEQRTIQAQKESLQNQHHS [APBB1IP], the protein stability index turned out to be 5.2 ± 0.38 under setting [1] and 5.23 ± 0.15 under setting [2].

Take VYMFKNGSGDSGDSSEEESHRVVL [LYSMD4]: the protein stability index reads like this: under setting [1], 3.49 ± 0.32; under setting [2], 3.33 ± 0.38.

TDLPECEQSSARQKASLLIQQALT [TCF25]: the protein stability index is 3.47 ± 0.36 under setting [1] and 3.66 ± 0.36 under setting [2].

Regarding VPPKDSAPKDSAPQDLAPQVSAHH [TBC1D10A], the protein stability index is 5.47 ± 0.19 under setting [1] and 5.4 ± 0.18 under setting [2].

Take RDSESTRHDSETEDMLWDDLLHGP [PHTF1]: the protein stability index is, setting by setting: under setting [1], 5.49 ± 0.31; under setting [2], 5.4 ± 0.2.

For the sequence ELADHIERLKANDNLKFSQEYESI [PTPRD], the protein stability index under setting [1] came to 3.48 ± 0.25 and the protein stability index under setting [2] turned out to be 3.74 ± 0.28.

Sequence FEFRPELVNDDDEEADDTRYTQGT [ZC3H15] yielded a protein stability index under setting [1] of 5.44 ± 0.25 and a protein stability index under setting [2] of 5.28 ± 0.2.

On to SPVNMVTVAMVAGQCEFAHILHS [ZNF649], for which the protein stability index reads like this: (treatment: DMSO, c terminus: native) 2.08 ± 0.19; (treatment: MLN4924 1 uM, 8 h, c terminus: native) 1.87 ± 0.25.

As for RGDSGRLGLGTRESHSCPQQVPMP [NEK8], the protein stability index runs as follows: under setting [1], 4.07 ± 0.18; under setting [2], 4.19 ± 0.28.

NITVVKGIRLSENVIDRMKESSPS [CHCHD3]: the protein stability index reads like this: under setting [1], 3.66 ± 0.29; under setting [2], 3.51 ± 0.28.

As to VLLQTSPYHVDSLLQLSDACRFQE [TCF25], the protein stability index is 2.22 ± 0.41 under setting [1] and 2.41 ± 0.56 under setting [2].

As to HNIFLLGGSSTSERCLLNNSLWKK [NLN], the protein stability index is, setting by setting: under setting [1], 2.39 ± 0.13; under setting [2], 2.24 ± 0.39.

On to GIFKIEDSAQVARLWGIRKNRPAM [SPDEF], for which the protein stability index is, setting by setting: under setting [1], 2.71 ± 0.4; under setting [2], 2.86 ± 0.3.

Consider ERSRDVVDEVSVSLRLWDTFGDHH [RHOBTB1], for which the protein stability index came out at 3.27 ± 0.2 under setting [1] and 3.32 ± 0.31 under setting [2].

(Values after the supplement of paper PMC10567573.)
